Laboratory results: patent US8563520B2, “Treatment of ocular disease with inhibitors of alpha2 macroglobulin protein” (McGill University, priority 2005, dated 2013)
Like-named read-outs stand apart in the source and are kept apart here.

System: Rat Retina
Experimental: The following experiment was conducted in order to assess changes in gene expression induced in the retina after intraocular injection of α2 macroglobulin protein. 2 μg of α2 macroglobulin protein was intraocularly injected into the right eye of rats (n=3) and the left eye was used as a control. One rat was tested at Day 3, one rat was tested at Day 7 and one rat was tested at Day 14. Retinas were isolated and mRNA was collected. Samples from each of the rats were studied by gene microassays. Retinas were carefully dissected out to insure that only retinal mRNAs were prepared for gene microarray studies. Samples were obtained from control eyes.
Total RNA was isolated from retinal tissue using TRIZOL® (Life Technologies). RNA was then further purified using the RNAEASY® (QIAGEN®). The integrity of the RNA samples was assessed by running aliquots on RNA 6000 Nano LabChip (Agilent) using the 2100 bioanalyzer (Agilent).
Probe synthesis, hybridization and scanning were done according to Affymetrix protocol, as a service at the McGill University and Genome Quebec Innovation Centre. For the experiments shown, Rat U34 Genome Arrays (8,700 genes, Affymetrix) were used. Briefly, RNA samples were first converted to double stranded cDNA (T7-(dT)24 primer (Genset)). Then the cDNAs were purified and used to generate the biotinylated cRNA probes (Bioarray High Yield RNA transcript labeling kit (Enzo diagnostics)). An aliquot of the purified cRNA was analyzed on RNA 6000 Nano LabChip (Agilent) to verify the integrity and size distribution. Immediately after hybridization the chip was placed in the Affymetrix GeneChip Fluidics Station 400 (Affymetrix). In total, 10 low-stringency washes (63 SSPE, 0.01% Tween-20, 0.005% Antifoam) and 4 high-stringency washes (100 mM MES, 0.1 M NaCl, 0.01% Tween-20, 50 C) were performed (all reagents from Sigma). The array was then incubated with SAPE® (streptavidin/phycoerythrin stain, Molecular Probes), followed by 10 low stringency washes. The array was incubated with biotinylated anti-streptavidin antibody (Vector Laboratories) and washed again with 15 low stringency washes. Specifically bound probe was detected by placing the array in the Agilent GeneArray scanner 2500 (Affymetrix). The scanned images were analyzed using the Microarray Analysis Suite version 5.0 (Affymetrix).
The fold change was analyzed by […] data for the control eye from the data on the eye injected with α2 macroglobulin. A fold change of 2 or greater indicates upregulation. A fold of 0.5 to 2 indicates no change. A fold change of 0.5 or less indicates downregulation.

[1] = gene ADP-ribosylation factor guanine nucleotide-exchange factor 1 (1392282_at)
[2] = gene Bone morphogenetic protein receptor, type 1A (1390398_at)
[3] = gene CDNA clone IMAGE: 7321089 (1389986_at)
[4] = gene CREB binding protein (1385852_at)
[5] = gene Ewing sarcoma breakpoint region 1 (1378518_at)
[6] = gene Exosome component 8 (predicted) (1386936_at)
[7] = gene FERM domain containing 4B (1384681_at)
[8] = gene Fc receptor, IgG, low affinity IIb (1371079_at)
[9] = gene High density lipoprotein binding protein (1375309_at)
[10] = gene RT1 class II, locus Ba (1370822_at)
[11] = gene RT1 class II, locus Bb (1371033_at)
[12] = gene RT1 class II, locus Da (1370883_at)
[13] = gene RT1 class II, locus Db1 (1370383_s_at)
[14] = gene S100 calcium binding protein A11 (calizzarin) (1375170_at)
[15] = gene Similar to CG10084-PA (1394756_at)
[16] = gene Similar to NICE-3 (1397412_at)
[17] = gene Similar to expressed sequence AV312086 (predicted) (1390657_at)
[18] = gene Similar to hypothetical protein D630010C10 (1385108_at)
[19] = gene Thyroid hormone receptor interactor 12 (1380803_at)
[20] = gene Transcribed locus (1381100_at)
[21] = gene Transcribed locus (1382211_at)
[22] = gene Transcribed locus (1382368_at)
[23] = gene Transcribed locus (1382510_at)
[24] = gene Transcribed locus (1384014_at)
[25] = gene Transcribed locus (1385552_at)
[26] = gene Transcribed locus (1391757_at)
[27] = gene Transcribed locus (1392155_at)
[28] = gene Transcribed locus (1392675_at)
[29] = gene Transcribed locus (1395390_at)
[30] = gene Transcribed locus (1397883_at)
[31] = gene actin related protein 2/3 complex, subunit 1B (1386925_at)
[32] = gene argininosuccinate synthetase (1370964_at)
[33] = gene ash1 (absent, small, or homeotic)-like (Drosophila) (predicted) (1382862_at)
[34] = gene cold inducible RNA binding protein (1382809_at)
[35] = gene complement component 1, s subcomponent (1387893_at)
[36] = gene complement component 3 (1368000_at)
[37] = gene complement component 4a (1370892_at)

B1: α2m: α2 macroglobulin protein injected intraocularly into normal rat eyes (protein, UniProt P06238 28-1472, looked up)
Alpha-2-macroglobulin: SAPQKPIYMVMVPSLLHAGTPEKACFLFSHLNETVAVRVSLESVRGNQSLFTDLVVDKDLFHCTSFTVPQSSSDEVMFFTVQVKGATHEFRRRSTVLVKKKESLVFAQTDKPIYKPGQTVRFRVVSLDESFHPLNELIPLLYIQDPKNNRIAQWQNFNLEGGLKQLSFPLSSEPTQGSYKVVIRTESGRTVEHPFSVEEFVLPKFEVRVTVPETITILEEEMNVSVCGIYTYGKPVPGRVTVNICRKYSNPSNCFGEESVAFCEKLSQQLDGRGCFSQLVKTKSFQLKRQEYEMQLDVHAKIQEEGTGVEETGKGLTKITRTITKLSFVNVDSHFRQGIPFVGQVLLVDGRGTPIPYETIFIGADEANLYINTTTDKHGLARFSINTDDIMGTSLTVRAKYKDSNACYGFRWLTEENVEAWHTAYAVFSPSRSFLHLESLPDKLRCDQTLEVQAHYILNGEAMQELKELVFYYLMMAKGGIVRAGTHVLPLKQGQMRGHFSILISMETDLAPVARLVLYAILPNGEVVGDTAKYEIENCLANKVDLVFRPNSGLPATRALLSVMASPQSLCGLRAVDQSVLLMKPETELSASLIYDLLPVKDLTGFPQGADQREEDTNGCVKQNDTYINGILYSPVQNTNEEDMYGFLKDMGLKVFTNSNIRKPKVCERLRDNKGIPAAYHLVSQSHMDAFLESSESPTETRRSYFPETWIWDLVVVDSAGVAEVEVTVPDTITEWKAGAFCLSNDTGLGLSPVVQFQAFQPFFVELTMPYSVIRGEAFTLKATVLNYLPTCIRVAVQLEASPDFLAAPEEKEQRSHCICMNQRHTASWAVIPKSLGNVNFTVSAEALNSKELCGNEVPVVPEQGKKDTIIKSLLVEPEGLENEVTFNSLLCPMGAEVSELIALKLPSDVVEESARASVTVLGDILGSAMQNTQDLLKMPYGCGEQNMVLFAPNIYVLDYLNETQQLTQEIKTKAIAYLNTGYQRQLNYKHRDGSYSTFGDKPGRNHANTWLTAFVLKSFAQARKYIFIDEVHITQALLWLSQQQKDNGCFRSSGSLLNNAMKGGVEDEVTLSAYITIALLEMSLPVTHPVVRNALFCLDTAWKSARGGAGGSHVYTKALLAYAFALAGNQDTKKEILKSLDEEAVKEEDSVHWTRPQKPSVSVALWYQPQAPSAEVEMTAYVLLAYLTTEPAPTQEDLTAAMLIVKWLTKQQNSHGGFSSTQDTVVALHALSKYGSATFTRAKKAAQVTIHSSGTFSTKFQVNNNNQLLLQRVTLPTVPGDYTVKVTGEGCVYLQTSLKYSVLPREEEFPFTVVVQTLPGTCEDPKAHTSFQISLNISYTGSRSESNMAIADVKMVSGFIPLKPTVKMLERSVHVSRTEVSNNHVLIYLDKVSNQTVNLSFTVQQDIPIRDLKPAVVKVYDYYEKDEFAVAKYSAPCSTDYGNA
Fold Change (α2m vs normal) Day 3 [1]: 0.5 | Fold Change (α2m vs normal) Day 7 [1]: 0.3 | Fold Change (α2m vs normal) Day 3 [2]: 0.4 | Fold Change (α2m vs normal) Day 7 [2]: 0.2 | Fold Change (α2m vs normal) Day 14 [2]: 2.6 | Fold Change (α2m vs normal) Day 3 (gene CD74 antigen (1367679_at)): 10.1 | Fold Change (α2m vs normal) Day 7 (gene CD74 antigen (1367679_at)): 6.5 | Fold Change (α2m vs normal) Day 3 [3]: 0.5 | Fold Change (α2m vs normal) Day 7 [3]: 0.3 | Fold Change (α2m vs normal) Day 14 [3]: 2.9 | Fold Change (α2m vs normal) Day 3 [4]: 0.5 | Fold Change (α2m vs normal) Day 7 [4]: 0.4 | Fold Change (α2m vs normal) Day 3 [5]: 0.4 | Fold Change (α2m vs normal) Day 7 [5]: 0.1 | Fold Change (α2m vs normal) Day 3 [6]: 0.4 | Fold Change (α2m vs normal) Day 7 [6]: 4.3 | Fold Change (α2m vs normal) Day 14 [6]: 2.4 | Fold Change (α2m vs normal) Day 3 [7]: 0.5 | Fold Change (α2m vs normal) Day 7 [7]: 0.2 | Fold Change (α2m vs normal) Day 14 [7]: 2.3 | Fold Change (α2m vs normal) Day 3 [8]: 9.4 | Fold Change (α2m vs normal) Day 7 [8]: 2.1 | Fold Change (α2m vs normal) Day 3 [9]: 0.5 | Fold Change (α2m vs normal) Day 7 [9]: 0.5 | Fold Change (α2m vs normal) Day 3 (gene LOC361776 (1373010_at)): 20.1 | Fold Change (α2m vs normal) Day 7 (gene LOC361776 (1373010_at)): 0.5 | Fold Change (α2m vs normal) Day 3 [10]: 8.3 | Fold Change (α2m vs normal) Day 7 [10]: 4.5 | Fold Change (α2m vs normal) Day 3 [11]: 6.8 | Fold Change (α2m vs normal) Day 7 [11]: 5.2 | Fold Change (α2m vs normal) Day 3 [12]: 16.1 | Fold Change (α2m vs normal) Day 7 [12]: 11.3 | Fold Change (α2m vs normal) Day 3 [13]: 4.9 | Fold Change (α2m vs normal) Day 7 [13]: 3.5 | Fold Change (α2m vs normal) Day 3 [14]: 2.0 | Fold Change (α2m vs normal) Day 7 [14]: 4.5 | Fold Change (α2m vs normal) Day 3 [15]: 0.5 | Fold Change (α2m vs normal) Day 7 [15]: 0.3 | Fold Change (α2m vs normal) Day 14 [15]: 2.4 | Fold Change (α2m vs normal) Day 3 [16]: 0.5 | Fold Change (α2m vs normal) Day 7 [16]: 0.4 | Fold Change (α2m vs normal) Day 14 [16]: 2.0 | Fold Change (α2m vs normal) Day 3 [17]: 0.4 | Fold Change (α2m vs normal) Day 7 [17]: 0.3 | Fold Change (α2m vs normal) Day 3 [18]: 0.4 | Fold Change (α2m vs normal) Day 7 [18]: 0.2 | Fold Change (α2m vs normal) Day 3 [19]: 0.3 | Fold Change (α2m vs normal) Day 7 [19]: 0.4 | Fold Change (α2m vs normal) Day 3 [20]: 0.4 | Fold Change (α2m vs normal) Day 7 [20]: 0.3 | Fold Change (α2m vs normal) Day 14 [20]: 5.4 | Fold Change (α2m vs normal) Day 3 [21]: 0.3 | Fold Change (α2m vs normal) Day 7 [21]: 4.2 | Fold Change (α2m vs normal) Day 3 [22]: 0.4 | Fold Change (α2m vs normal) Day 7 [22]: 0.2 | Fold Change (α2m vs normal) Day 14 [22]: 2.7 | Fold Change (α2m vs normal) Day 3 [23]: 0.4 | Fold Change (α2m vs normal) Day 7 [23]: 0.3 | Fold Change (α2m vs normal) Day 3 [24]: 0.5 | Fold Change (α2m vs normal) Day 7 [24]: 4.2 | Fold Change (α2m vs normal) Day 14 [24]: 2.0 | Fold Change (α2m vs normal) Day 3 [25]: 0.5 | Fold Change (α2m vs normal) Day 7 [25]: 0.3 | Fold Change (α2m vs normal) Day 3 [26]: 0.5 | Fold Change (α2m vs normal) Day 7 [26]: 0.2 | Fold Change (α2m vs normal) Day 14 [26]: 2.0 | Fold Change (α2m vs normal) Day 3 [27]: 2.4 | Fold Change (α2m vs normal) Day 7 [27]: 16.6 | Fold Change (α2m vs normal) Day 3 [28]: 0.4 | Fold Change (α2m vs normal) Day 7 [28]: 0.3 | Fold Change (α2m vs normal) Day 3 [29]: 0.4 | Fold Change (α2m vs normal) Day 7 [29]: 4.1 | Fold Change (α2m vs normal) Day 3 [30]: 2.4 | Fold Change (α2m vs normal) Day 7 [30]: 17.0 | Fold Change (α2m vs normal) Day 3 [31]: 2.7 | Fold Change (α2m vs normal) Day 7 [31]: 2.0 | Fold Change (α2m vs normal) Day 3 [32]: 0.4 | Fold Change (α2m vs normal) Day 7 [32]: 2.4 | Fold Change (α2m vs normal) Day 3 [33]: 0.5 | Fold Change (α2m vs normal) Day 7 [33]: 0.2 | Fold Change (α2m vs normal) Day 3 (gene cadherin 1 (1386947_at)): 0.4 | Fold Change (α2m vs normal) Day 7 (gene cadherin 1 (1386947_at)): 9.6 | Fold Change (α2m vs normal) Day 14 (gene cadherin 1 (1386947_at)): 2.4 | Fold Change (α2m vs normal) Day 3 [34]: 0.4 | Fold Change (α2m vs normal) Day 7 [34]: 0.1 | Fold Change (α2m vs normal) Day 14 [34]: 2.2 | Fold Change (α2m vs normal) Day 3 [35]: 6.0 | Fold Change (α2m vs normal) Day 7 [35]: 3.6 | Fold Change (α2m vs normal) Day 3 [36]: 8.4 | Fold Change (α2m vs normal) Day 7 [36]: 2.1 | Fold Change (α2m vs normal) Day 3 [37]: 2.2 | Fold Change (α2m vs normal) Day 7 [37]: 2.3 | Fold Change (α2m vs normal) Day 3 (gene complement factor B (1389470_at)): 3.9
